Laboratory results as given in patent publication US20050180952A1, “Methods for intradermal delivery of therapeutics agents” (priority 2003, published 2005).

Key:
B16F10 melanoma cells = assay: Effects of ID and IP delivery on antitumor activity of IL-12 (10 and 100 ng), tumor size; type: in vivo, C57BL Mice; conditions: for tumor size increase: by day 21
Experimental: C57BL Mice were inoculated subcutaneously (SC) with 1 million B16F10 melanoma cells (ATCC, Inc.). Treatment was initiated with IL-12 injections 7 days post-inoculation at two levels (10 and 100 ng) given as either an intraperitoneal (IP) or intradermal (ID) (tumor bearing side) dose. IL-12 doses were repeated every other day for a total of 4 treatments. As a control, the same volume of complete medium (PBS) was injected ID on the tumor bearing side. True negatives were also run in conjunction for serum and tissue samples (n=15/condition). Weights and tumor size were measured on days 7, 11, 14, 18 and 21. Blood samples were also collected at weekly intervals for IL-12 analysis. Two tumor diameters at right angles were measured with digital calipers, and the average tumor size was plotted with respect to days post inoculation with tumor cells.

B 16F10 melanoma cells = assay: Effects of routes of IL-12 delivery (ID, SC, IP) on tumor growth, 100 ng dose; type: in vivo, C57BL/6J mice
Experimental: C57BL/6J mice (Charles Rivers Labs, Inc) were inoculated SC with 1×10^6 B 16F10 melanoma cells (ATCC) on the upper right flank. One week following tumor inoculation (Day 7), the mice were randomized and treated with 100 ng rmIL-12 (R&D Systems) in 50 μL PBS solution through either ID or SC injections near tumor inoculation site, or an IP injection (n=25/condition). An additional condition of ID controls was run using 50 μL PBS solution alone. ID treatment was administered with a 34G, 1 mm needle using a modified mantoux method. SC and IP doses were given with standard 25G×¾″ needle. Treatment was continued every other day through Day 13 for a total of four doses. Tumor measurements in mm^2 (length×width) were collected on Days 7, 11, 14, 18, 21, 25 and 28. Blood samples were collected on Days 0, 14, 21 and 28 for IL-12 and IFN-gamma analysis. Draining lymph node and spleen tissue samples were collected from five animals in each condition on Days 14 and 24 for FACS analysis of CD49b (NK) cells. Mortality data were collected on 10 pre-selected animals that were not used for blood sampling or FACS analysis from each condition. Mortality was determined through either natural death or euthanasia due to tumor size of greater than 400 mm^2. Statistical data were calculated using a t-Test: Two-Sample Assuming Unequal Variances. See, e.g., Brunda, M., J. Exp. Med., 178: 1223-1230 (1993) and Leonard et al., Blood, 90: 2541-2548 (1997), both of which are incorporated herein by reference.

B1: IL-12: rmIL-12 (R&D Systems), interleukin-12 cytokine given in PBS solution (protein, UniProt P43431 23-215; P43432 23-335, looked up)
Interleukin-12 subunit alpha: RVIPVSGPARCLSQSRNLLKTTDDMVKTAREKLKHYSCTAEDIDHEDITRDQTSTLKTCLPLELHKNESCLATRETSSTTRGSCLPPQKTSLMMTLCLGSIYEDLKMYQTEFQAINAALQNHNHQQIILDKGMLVAIDELMQSLNHNGETLRQKPPVGEADPYRVKMKLCILLHAFSTRVVTINRVMGYLSSA
Interleukin-12 subunit beta: MWELEKDVYVVEVDWTPDAPGETVNLTCDTPEEDDITWTSDQRHGVIGSGKTLTITVKEFLDAGQYTCHKGGETLSHSHLLLHKKENGIWSTEILKNFKNKTFLKCEAPNYSGRFTCSWLVQRNMDLKFNIKSSSSSPDSRAVTCGMASLSAEKVTLDQRDYEKYSVSCQEDVTCPTAEETLPIELALEARQQNKYENYSTSFFIRDIIKPDPPKNLQMKPLKNSQVEVSWEYPDSWSTPHSYFSLKFFVRIQRKKEKMKETEEGCNQKGAFLVEKTSTEVQCKGGNVCVQAQDRYYNSSCSKWACVPCRVRS
average tumor size (B16F10 melanoma cells; 10 ng, ID, Day 11): 77 mm^2
average tumor size (B16F10 melanoma cells; 10 ng, ID, Day 14): 120 mm^2
tumor size increase from the previous measurement (B16F10 melanoma cells; 10 ng, ID, Day 14): 56%
average tumor size (B16F10 melanoma cells; 10 ng, ID, Day 18): 112 mm^2
tumor size decrease from the previous measurement (B16F10 melanoma cells; 10 ng, ID, Day 18): 6%
average tumor size (B16F10 melanoma cells; 10 ng, ID, Day 21): 250 mm^2
tumor size increase from the previous measurement (B16F10 melanoma cells; 10 ng, ID, Day 21): 121%
average tumor size (B16F10 melanoma cells; 10 ng, IP, Day 11): 68 mm^2
average tumor size (B16F10 melanoma cells; 10 ng, IP, Day 14): 113 mm^2
tumor size increase from the previous measurement (B16F10 melanoma cells; 10 ng, IP, Day 14): 63%
average tumor size (B16F10 melanoma cells; 10 ng, IP, Day 18): 206 mm^2
tumor size increase from the previous measurement (B16F10 melanoma cells; 10 ng, IP, Day 18): 82%
average tumor size (B16F10 melanoma cells; 10 ng, IP, Day 21): 262 mm^2
tumor size increase from the previous measurement (B16F10 melanoma cells; 10 ng, IP, Day 21): 27%
final average ID tumor size smaller than IP (B16F10 melanoma cells; 100 ng, Day 21): 47%
average tumor size (B16F10 melanoma cells; 100 ng, ID, Day 11): 54 mm^2
average tumor size (B16F10 melanoma cells; 100 ng, ID, Day 14): 75 nm^2
tumor size increase from the previous measurement (B16F10 melanoma cells; 100 ng, ID, Day 14): 39%
average tumor size (B16F10 melanoma cells; 100 ng, ID, Day 21): 142 mm^2
tumor size increase (B16F10 melanoma cells; 100 ng, ID): 89%
average tumor size (B16F10 melanoma cells; 100 ng, IP, Day 11): 70 mm^2
average tumor size (B16F10 melanoma cells; 100 ng, IP, Day 14): 126 mm^2
tumor size increase from the previous measurement (B16F10 melanoma cells; 100 ng, IP, Day 14): 80%
average tumor size (B16F10 melanoma cells; 100 ng, IP, Day 21): 302 mm^2
tumor size increase (B16F10 melanoma cells; 100 ng, IP): 139%
Mean (tumor measurement, length x width) (B 16F10 melanoma cells; Day 18, ID 100 ng): 62.29 mm^2
Mean (tumor measurement, length x width) (B 16F10 melanoma cells; Day 18, IP 100 ng): 158.2458 mm^2
Mean (tumor measurement, length x width) (B 16F10 melanoma cells; Day 18, SC 100 ng): 199.7379 mm^2
Mean (tumor measurement, length x width) (B 16F10 melanoma cells; Day 28, ID 100 ng): 127.2 mm^2
Mean (tumor measurement, length x width) (B 16F10 melanoma cells; Day 28, IP 100 ng): 383.7 mm^2
Mean (tumor measurement, length x width) (B 16F10 melanoma cells; Day 28, SC 100 ng): 352.9 mm^2
inhibition of tumor growth (B 16F10 melanoma cells; ID delivery, 100 ng, only route with effect (FIG. 1)): significant effects on inhibiting the tumor growth
